# Results: the supplement of paper PMC10567573
# B1: MFF (parent)
# chain: YTEGISQRMRVPEKLKVAPPNADL
# Variants of: B1
# Assay: protein stability index of a GFP-peptide fusion (GPS, HEK-293T) (PSI 1-6); higher = more stable
# Conditions: c terminus: a fixed tail appended
# 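Further: lentivirally expressed fusions sorted by FACS into six bins by GFP to DsRed ratio, PSI derived from sequencing read proportions per bin multiplied by bin number.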
row,Variant,protein stability index
1,YTEGISQRMRVPNKLKVAPPNADL,2.53
2,YTEGISQRMRVPEKWKVAPPNADL,2.51
3,YTEGISQRMRVPEKRKVAPPNADL,2.58
4,YTEGISQRMRVPEKNKVAPPNADL,2.99
5,YTEGISQRMRVPEKMKVAPPNADL,2.59
6,YTEGISQRMRVPEKHKVAPPNADL,2.91
7,YTEGISQRMRVPEKQKVAPPNADL,3.06
8,YTEGISQRMRVPEKKKVAPPNADL,3.19
9,YTEGISQRMRVPEKVKVAPPNADL,3.09
10,YTEGISQRMRVPEKDKVAPPNADL,3.08
11,YTEGISQRMRVPEKAKVAPPNADL,3.15
12,YTEGISQRMRVPEKPKVAPPNADL,3.05
13,YTEGISQRMRVPEKSKVAPPNADL,3.15
14,YTEGISQRMRVPEKCKVAPPNADL,2.44
15,YTEGISQRMRVPEKGKVAPPNADL,3.38
16,YTEGISQRMRVPEKTKVAPPNADL,2.71
17,YTEGISQRMRVPEKEKVAPPNADL,3.36
18,YTEGISQRMRVPEKFKVAPPNADL,2.53
19,YTEGISQRMRVPEKIKVAPPNADL,2.69
20,YTEGISQRMRVPEKYKVAPPNADL,3.12
21,YTEGISQRMRVPEKLKVAPRNADL,2.75
22,YTEGISQRMRVPEKLKVAPFNADL,2.01
23,YTEGISQRMRVPEKLKVAPKNADL,3.51
24,YTEGISQRMRVPEKLKVAPYNADL,2.04

row,Variant,protein stability index
1,YTEGISQRMRVPEKLKVAPNNADL,3.12
2,YTEGISQRMRVPEKLKVAPANADL,2.98
3,YTEGISQRMRVPEKLKVAPENADL,3.55
4,YTEGISQRMRVPEKLKVAPLNADL,2.24
5,YTEGISQRMRVPEKLKVAPQNADL,3.44
6,YTEGISQRMRVPEKLKVAPCNADL,2.44
7,YTEGISQRMRVPEKLKVAPVNADL,3.06
8,YTEGISQRMRVPEKLKVAPINADL,2.75
9,YTEGISQRMRVPEKLKVAPGNADL,2.91
10,YTEGISQRMRVPEKLKVAPMNADL,2.66
11,YTEGISQRMRVPEKLKVAPWNADL,2.35
12,YTEGISQRMRVPEKLKVAPDNADL,3.04
13,YTEGISQRMRVPEKLKVAPSNADL,2.65
14,YTEGISQRMRVPEKLKVAPHNADL,2.69
15,YTEGISQRMRVPEKLKVAPTNADL,2.69
16,YTEGISQRMRVPEKLYVAPPNADL,2.81
17,YTEGISQRMRVPEKLVVAPPNADL,2.9
18,YTEGISQRMRVPEKLWVAPPNADL,2.49
19,YTEGISQRMRVPEKLGVAPPNADL,3.27
20,YTEGISQRMRVPEKLQVAPPNADL,2.67
21,YTEGISQRMRVPEKLRVAPPNADL,2.34
22,YTEGISQRMRVPEKLHVAPPNADL,3.21
23,YTEGISQRMRVPEKLEVAPPNADL,2.93
24,YTEGISQRMRVPEKLCVAPPNADL,2.81

row,Variant,protein stability index
1,YTEGISQRMRVPEKLFVAPPNADL,2.8
2,YTEGISQRMRVPEKLLVAPPNADL,2.62
3,YTEGISQRMRVPEKLAVAPPNADL,2.68
4,YTEGISQRMRVPEKLIVAPPNADL,3.23
5,YTEGISQRMRVPEKLNVAPPNADL,3.33
6,YTEGISQRMRVPEKLDVAPPNADL,3.87
7,YTEGISQRMRVPEKLTVAPPNADL,3.16
8,YTEGISQRMRVPEKLPVAPPNADL,2.83
9,YTEGISQRMRVPEKLSVAPPNADL,3.62
10,YTEGISQRMRVPEKLMVAPPNADL,2.77
11,YTEGISQRMRVPEKLKVAPPKADL,2.99
12,YTEGISQRMRVPEKLKVAPPQADL,2.9
13,YTEGISQRMRVPEKLKVAPPVADL,3.09
14,YTEGISQRMRVPEKLKVAPPMADL,2.67
15,YTEGISQRMRVPEKLKVAPPAADL,3.21
16,YTEGISQRMRVPEKLKVAPPTADL,2.71
17,YTEGISQRMRVPEKLKVAPPDADL,3.1
18,YTEGISQRMRVPEKLKVAPPGADL,2.72
19,YTEGISQRMRVPEKLKVAPPFADL,2.25
20,YTEGISQRMRVPEKLKVAPPSADL,3.24
21,YTEGISQRMRVPEKLKVAPPCADL,2.33
22,YTEGISQRMRVPEKLKVAPPEADL,2.87
23,YTEGISQRMRVPEKLKVAPPLADL,2.09
24,YTEGISQRMRVPEKLKVAPPHADL,2.91

row,Variant,protein stability index
1,YTEGISQRMRVPEKLKVAPPIADL,2.34
2,YTEGISQRMRVPEKLKVAPPRADL,3.19
3,YTEGISQRMRVPEKLKMAPPNADL,2.75
4,YTEGISQRMRVPEKLKAAPPNADL,2.82
5,YTEGISQRMRVPEKLKYAPPNADL,2.3
6,YTEGISQRMRVPEKLKTAPPNADL,2.89
7,YTEGISQRMRVPEKLKWAPPNADL,2.35
8,YTEGISQRMRVPEKLKGAPPNADL,2.65
9,YTEGISQRMRVPEKLKHAPPNADL,2.9
10,YTEGISQRMRVPEKLKKAPPNADL,3.29
11,YTEGISQRMRVPEKLKPAPPNADL,3.31
12,YTEGISQRMRVPEKLKCAPPNADL,2.18
13,YTEGISQRMRVPEKLKIAPPNADL,2.54
14,YTEGISQRMRVPEKLKNAPPNADL,2.85
15,YTEGISQRMRVPEKLKLAPPNADL,2.88
16,YTEGISQRMRVPEKLKDAPPNADL,3.18
17,YTEGISQRMRVPEKLKEAPPNADL,3.25
18,YTEGISQRMRVPEKLKQAPPNADL,2.95
19,YTEGISQRMRVPEKLKRAPPNADL,3.22
20,YTEGISQRMRVPEKLKFAPPNADL,2.6
21,YTEGISQRMRVPEKLKSAPPNADL,2.48
22,YTEGISQRMRYPEKLKVAPPNADL,2.6
